# Measured values published in patent US20060240474A1, “Peptides able to switch between two structural states and their use” (UNIVERSITY OF SUSSEX, priority 2002, published 2006).
# Where a SMILES comes first, the peptide text is derived from it. Bridges are numbered along the chain shown (N, C = ends). Roman numbers before positions name the chains, in order. Where no end group is shown, it is not given here. The star is where a group is joined. Cam = NC(=O)C*
# B1: CSP-1r (Coiled-coil-Switch Peptide-1, reduced and alkylated) (peptide)
# peptide: C(Cam)GGEIRALKYEIARLKQKKRALEQKIAALEGGC(Cam)
# notes: Synthetic designed peptide; The entry is the monomer chain; the KD is for its monomer-dimer equilibrium (parallel coiled-coil homodimer); also called design iteration 1, reduced & alkylated; CSP-2a (Maya's nomenclature)
# B2: CSP-3r (reduced and alkylated) (peptide)
# peptide: C(Cam)GGEIRALKYEIARLKQAKQAKIRALEQKIAALEGGC(Cam)
# notes: The entry is the monomer chain; the KD is for its monomer-dimer equilibrium; also called CSP-3a; design iteration 3, reduced & alkylated
# B3: CSP-4r (reduced and alkylated) (peptide)
# peptide: C(Cam)GGEIRALKYEIARLKQAKQAEIRALKQEIAALKGGC(Cam)
# notes: Anagram mutant of CSP-3 with all g:e pairs Glu:Lys; also called design iteration 4, reduced & alkylated; CSP-5a (Maya's nomenclature)
# B4: CSP-5r (reduced and alkylated) (peptide)
# peptide: C(Cam)GGKIRALEYKIARLEQAKQAKIRALEQKIAALEGGC(Cam)
# notes: Anagram mutant of CSP-3 with all g:e pairs Lys:Glu; also called design iteration 5, reduced & alkylated; CSP-6a (Maya's nomenclature)
# B5: CSP-6r (reduced and alkylated) (peptide)
# peptide: C(Cam)GGEIRALKYEIARLKQAAQAKIRALEQKIAALEGGC(Cam)
# notes: CSP-3 with the Lys at the h position replaced by Ala; also called design iteration 6, reduced & alkylated; CSP-7a (Maya's nomenclature)
# B6: CSP-7r (reduced and alkylated) (peptide)
# peptide: C(Cam)GGEIRALKYEIARLKQAAQAKKRALEQKIAALEGGC(Cam)
# notes: CSP-6 with the Ile at the a site after the hendecad unit replaced by Lys; also called design iteration 7, reduced & alkylated; CSP-8a (Maya's nomenclature)
# Tests used:
# [1] = Thermal unfolding followed by CD spectroscopy; assay type: physicochemical; details: for TM of the oxidised state: oxidised form; for TM of the oxidised state / TM of the reduced, dimeric form: ±2 for all three values; for thermal stability in words: comparator named in the value; for thermal destabilisation compared with CSP-3o: oxidised forms; for midpoint of thermal unfolding transition, TM: FIG. 3B, concentration not given
# Protocol: (§1) Circular dichroism spectroscopy. CD measurements were made using a JASCO J-715 spectropolarimeter fitted with a Peltier temperature controller. Peptide solutions were prepared in 25 mM potassium phosphate buffer at pH 7 and were examined in 1 mm or 1 cm quartz cuvettes (with stirring). Spectra were recorded at 5° C. using 1 nm intervals, a 1 nm bandwidth and 4 sec response time. Thermal unfolding curves were recorded through 1° C. min^−1 ramps using a 2 nm bandwidth, averaging the signal for 16 s every 1° C. intervals. After baseline correction, ellipticities in mdeg were converted to molar ellipticities (deg cm^2 dmol-res-^−1) by normalising for the concentration of peptide bonds.
# [2] = Circular dichroism spectroscopy (helicity); assay type: physicochemical; details: for helix content judged by CD spectroscopy: pH 7, 5° C., 100 μM peptide (b86 prints 100 mM); for helicity compared with other designs (CD signal at 222 nm): pH 7, comparator named in the value
# Protocol: as §1
# [3] = biological target: the molecule itself; assay: sedimentation equilibrium AUC, monomer-dimer fit, pH 7, 5 C (homodimerisation)
# Protocol: Sedimentation equilibrium experiments were conducted at 5° C. in a Beckman-Optima XL-I analytical ultracentrifuge fitted with an An-60 Ti rotor. A […] peptide solution at […] in 25 mM K phosphate buffer pH 7 containing 0.1 M KCl was equilibrated for 48 h at speeds of 40 000, 47 500/50 000 and 55 000/60 000 rpm. Data were fitted simultaneously assuming either a single ideal species or a monomer-dimer equilibrium and fixed monomer molecular weight, using routines in the Beckman-Optima XL-A/XLI-I data analysis software (v4.0). The molecular weights (Table 2) and partial specific volumes (range 0.7417 to 0.7461) of the peptides were calculated from their amino-acid sequences, and the viscosity of the buffer at 5° C. was taken to be […].
molecule,measurement,setting,value
CC[C@H](C)[C@H](NC(=O)[C@H](CCCCN)NC(=O)[C@H](CCC(N)=O)NC(=O)[C@H](CCC(=O)O)NC(=O)[C@H](CC(C)C)NC(=O)[C@H](C)NC(=O)[C@H](CCCNC(=N)N)NC(=O)[C@@H](NC(=O)[C@H](CCCCN)NC(=O)[C@H](C)NC(=O)[C@H](CCC(N)=O)NC(=O)[C@H](CCCCN)NC(=O)[C@H](C)NC(=O)[C@H](CCC(N)=O)NC(=O)[C@H](CCCCN)NC(=O)[C@H](CC(C)C)NC(=O)[C@H](CCCNC(=N)N)NC(=O)[C@H](C)NC(=O)[C@@H](NC(=O)[C@H](CCC(=O)O)NC(=O)[C@H](Cc1ccc(O)cc1)NC(=O)[C@H](CCCCN)NC(=O)[C@H](CC(C)C)NC(=O)[C@H](C)NC(=O)[C@H](CCCNC(=N)N)NC(=O)[C@@H](NC(=O)[C@H](CCC(=O)O)NC(=O)CNC(=O)CNC(=O)[C@@H](N)CS)[C@@H](C)CC)[C@@H](C)CC)[C@@H](C)CC)C(=O)N[C@@H](C)C(=O)N[C@@H](C)C(=O)N[C@@H](CC(C)C)C(=O)N[C@@H](CCC(=O)O)C(=O)NCC(=O)NCC(=O)N[C@@H](CS)C(=O)O [CSP-3] (H-CGGEIRALKYEIARLKQAKQAKIRALEQKIAALEGGC-OH; N-terminus and C-terminus assumed),TM of the oxidised state,[1],50 °C
same,"TM of the reduced, dimeric form",[1],40 °C
CC[C@H](C)[C@H](NC(=O)[C@H](CCCCN)NC(=O)[C@H](CCC(N)=O)NC(=O)[C@H](CCC(=O)O)NC(=O)[C@H](CC(C)C)NC(=O)[C@H](C)NC(=O)[C@H](CCCNC(=N)N)NC(=O)[C@@H](NC(=O)[C@H](CCCCN)NC(=O)[C@H](C)NC(=O)[C@H](CCC(N)=O)NC(=O)[C@H](C)NC(=O)[C@H](C)NC(=O)[C@H](CCC(N)=O)NC(=O)[C@H](CCCCN)NC(=O)[C@H](CC(C)C)NC(=O)[C@H](CCCNC(=N)N)NC(=O)[C@H](C)NC(=O)[C@@H](NC(=O)[C@H](CCC(=O)O)NC(=O)[C@H](Cc1ccc(O)cc1)NC(=O)[C@H](CCCCN)NC(=O)[C@H](CC(C)C)NC(=O)[C@H](C)NC(=O)[C@H](CCCNC(=N)N)NC(=O)[C@@H](NC(=O)[C@H](CCC(=O)O)NC(=O)CNC(=O)CNC(=O)[C@@H](N)CS)[C@@H](C)CC)[C@@H](C)CC)[C@@H](C)CC)C(=O)N[C@@H](C)C(=O)N[C@@H](C)C(=O)N[C@@H](CC(C)C)C(=O)N[C@@H](CCC(=O)O)C(=O)NCC(=O)NCC(=O)N[C@@H](CS)C(=O)O [CSP-6] (H-CGGEIRALKYEIARLKQAAQAKIRALEQKIAALEGGC-OH; N-terminus and C-terminus assumed),TM of the oxidised state,[1],47 °C
same,"TM of the reduced, dimeric form",[1],75 °C
CC[C@H](C)[C@H](NC(=O)[C@H](CCCCN)NC(=O)[C@H](CCC(N)=O)NC(=O)[C@H](CCC(=O)O)NC(=O)[C@H](CC(C)C)NC(=O)[C@H](C)NC(=O)[C@H](CCCNC(=N)N)NC(=O)[C@H](CCCCN)NC(=O)[C@H](CCCCN)NC(=O)[C@H](C)NC(=O)[C@H](CCC(N)=O)NC(=O)[C@H](C)NC(=O)[C@H](C)NC(=O)[C@H](CCC(N)=O)NC(=O)[C@H](CCCCN)NC(=O)[C@H](CC(C)C)NC(=O)[C@H](CCCNC(=N)N)NC(=O)[C@H](C)NC(=O)[C@@H](NC(=O)[C@H](CCC(=O)O)NC(=O)[C@H](Cc1ccc(O)cc1)NC(=O)[C@H](CCCCN)NC(=O)[C@H](CC(C)C)NC(=O)[C@H](C)NC(=O)[C@H](CCCNC(=N)N)NC(=O)[C@@H](NC(=O)[C@H](CCC(=O)O)NC(=O)CNC(=O)CNC(=O)[C@@H](N)CS)[C@@H](C)CC)[C@@H](C)CC)C(=O)N[C@@H](C)C(=O)N[C@@H](C)C(=O)N[C@@H](CC(C)C)C(=O)N[C@@H](CCC(=O)O)C(=O)NCC(=O)NCC(=O)N[C@@H](CS)C(=O)O [CSP-7] (H-CGGEIRALKYEIARLKQAAQAKKRALEQKIAALEGGC-OH; N-terminus and C-terminus assumed),TM of the oxidised state,[1],53±2 °C
same,"TM of the reduced, dimeric form",[1],34±2 °C
CGGEIRALKYEIARLKQ----KKRALEQKIAALEGGC [CSP-1o] (disulfide I:1-II:16; not fully specified),thermal stability in words,[1],changed little upon heating
same,helix content judged by CD spectroscopy,[2],20%
CGGEIRALKYEIARLKQ----KKRALEQKIAALEGGC [CSP-1r] (not fully specified (some residues); cysteine pairing not given here),"transition midpoint, TM",[1]; 10 mM sample (so in the source),50 °C
same,"transition midpoint, TM",[1]; 100 mM peptide (so in the source),62 °C
same,helix content judged by CD spectroscopy,[2],90%
CGGEIRALKYEIARLKQAAQAKIRALEQKIAALEGGC [CSP-6r],TM,[1]; 10 μM peptide,61±2 °C
same,thermal stability in words,[1],significantly increased over the other hendecad-containing designs CSP-2r and CSP-3r
same,helicity compared with other designs (CD signal at 222 nm),[2],significantly increased over the other hendecad-containing designs CSP-2r and CSP-3r
CGGEIRALKYEIARLKQAAQAKKRALEQKIAALEGGC [CSP-7o] (disulfide 1-37),thermal stability in words,[1],affected less
CGGEIRALKYEIARLKQAAQAKKRALEQKIAALEGGC [CSP-7r],thermal stability in words,[1],compromised both the helicity and the thermal stability
same,helicity compared with other designs (CD signal at 222 nm),[2],compromised both the helicity and the thermal stability
CGGEIRALKYEIARLKQAKQAEIRALKQEIAALKGGC [CSP-4o] (disulfide 1-37),thermal destabilisation compared with CSP-3o,[1],~20 °C
same,helicity compared with other designs (CD signal at 222 nm),[2],"marginally less helical than the parent, CSP-3o"
CGGEIRALKYEIARLKQAKQAEIRALKQEIAALKGGC [CSP-4r],thermal stability higher than CSP-3r by,[1]; reduced forms,~8 °C
CGGEIRALKYEIARLKQAKQAKIRALEQKIAALEGGC [CSP-3r],"midpoint of thermal unfolding transition, TM",[1],40±2 °C
same,helicity compared with other designs (CD signal at 222 nm),[2],approximate three-fold improvement in helicity over CSP-2r
CGGEIRALKYEIARLKQGGGGKKRALEQKIAALEGGC [CSP-2o] (disulfide 1-37),"midpoint of thermal unfolding transition, TM",[1],40±2 °C
same,helix content judged by CD spectroscopy,[2],~40%
same,helicity compared with other designs (CD signal at 222 nm),[2],approximately double the helical signal ([θ]222) of the parent peptide
CGGEIRALKYEIARLKQGGGGKKRALEQKIAALEGGC [CSP-2r],"midpoint of thermal unfolding transition, TM",[1],22±2 °C
same,helix content judged by CD spectroscopy,[2],~20%
CGGKIRALEYKIARLEQAKQAKIRALEQKIAALEGGC [CSP-5o] (disulfide 1-37),thermal destabilisation compared with CSP-3o,[1],~20 °C
same,helicity compared with other designs (CD signal at 222 nm),[2],"marginally less helical than the parent, CSP-3o"
CGGKIRALEYKIARLEQAKQAKIRALEQKIAALEGGC [CSP-5r],thermal stability lower than the parent (CSP-3r) by,[1]; reduced forms,12 °C
B1,Kd,[3],33 µM
B2,Kd,[3],191 µM
B3,Kd,[3],77 µM
B4,Kd,[3],72 µM
B5,Kd,[3],34 µM
B6,Kd,[3],506 µM
